Measured values: patent publication US9803013B2, “Biological materials and uses thereof” (BioInvent International AB, priority 2005, dated 2017)

How the values were obtained:
RPMI-8226 cells = assay: Macrophage ADCP; format: cell-based; details: RPMI-8226, human macrophages
Method: (§1) Cultured macrophages were detached and plated in flat 96-well plates at 50 000 cells/well and placed in 37° C. CFSE-stained target cells were incubated with antibodies for up to 1 hr on ice. After washing, the different cell solutions were added to the culture plates containing macrophages at a ratio of 5:1 (Target cells:Macrophages). Thereafter, the culture plates were incubated at 37° C. for 1-2 hr (primary patient MM cells) or 16 hr (RPMI-8226 cells). The percentage of macrophages that had phagocytosed tumor cells (CFSE^+, CD206^+) per total analyzed macrophages was determined following gating and acquisition of 5000 CD206^+ cells/sample.
(§2) Buffy coats from healthy human donors were ordered through the local blood central at Lund University Hospital and Halmstad Hospital. Peripheral blood mononuclear cells (PBMCs) were first extracted using Ficoll-Paque PLUS (GE Healthcare Life Sciences), followed by isolation of monocytes with CD14 MicroBeads and MACS separation (Miltenyi Biotec). The monocytes were cultured in RPMI 1640 medium with 10% heat-inactivated FBS (Invitrogen) and 25 ng/mL of recombinant human M-CSF (R&D Systems) for 6-14 days, causing differentiation into macrophages. Medium with M-CSF was changed every 2-3 days upon initiation of cultures.
(§3) RPMI-8226 cells (ATCC) were continuously cultured in RPMI 1640 medium supplemented with 10 mM HEPES, 1 mM sodium pyruvate and 10% FBS. For multiple myeloma cells, freshly isolated bone marrow samples were donated by patients at Lund University Hospital and subsequently processed with Ficoll-Paque PLUS. Negative isolation of malignant plasma cells was then performed using the Plasma Cell Isolation Kit II according to the manufacturer's instructions (Miltenyi Biotec).
(§4) At least 4 h before co-culture with target cells the cultured macrophages were detached with Accutase (Sigma Aldrich), before plated in flat 96-well plates at 50 000 cells/well and placed in 37° C. […] After washing, the different cell solutions were added to the culture plates containing macrophages at a ratio of 5:1 (Target cells:Macrophages). Thereafter, the culture plates were incubated at 37° C. for 1-2 hr (primary patient MM cells) or 16 hr (RPMI-8226 cells). Next, samples were stained with APC-conjugated anti-CD206 antibody (BD Biosciences), before harvested by scraping the culture plate wells. The resulting cell solutions were then analyzed by flow cytometry, where CD206^+ macrophages were gated and acquired at 5000 cells/sample. A cut-off level identifying CFSE^+, CD206^+ double positive (phagocytic) macrophages was set for each experimental sample series. This level differed between the individual assays since the magnitude of basic (unstimulated) phagocytosis varied (different donors and time-points) among the experiments.

[1] = tested on: primary patient's MM cells; assay: Macrophage ADCP; format: cell-based; details: human macrophages
Method: as §1, §2, §3, §4

PBMC = PBMC cytokine release; format: cell-based, human; details: immobilized (air-dried or wet coated) or in solution
Method: (FIG. 23D) Antibody-induced PBMC cytokine release. PBMC cytokine release was measured by ELISA of cell culture supernatants for IL-1β, IL-2, IL-6, IL-8, IFN-γ and TNF-α following incubation of cells in plates coated with hyper cross-linked (air-dried “A” or wet coated “W”) BI-505, isotype control, or positive control Okt-3 antibody.
(FIG. 23E) Antibody-induced cytokine release in LPS-primed PBMC. PBMC were incubated with titrated LPS and concentrations yielding submaximal cellular release of IL-1β. (100 pg/ml), IL-6 (10 pg/ml), IL-8 (10 pg/ml), and TNF-α (10 pg/ml) were determined (arrows, left panel), and used in subsequent experiments assessing antibody (BI-505 or ctrl IgG) effects on cytokine release from LPS-primed PBMC (right panel). Treatment with 100 ng/ml LPS served as positive control for robust cytokine release.
Cytokine release and T cell proliferation are thought to be common causes of mild and severe adverse reactions to antibody therapy. In order to further investigate any undesirable effects of BI-505 on ICAM-1 expressing immune cells, we therefore assessed putative effects of BI-505 on peripheral blood mononuclear cell (PBMC) cytokine release and T cell proliferation. […]
For cell culture cytokine quantifications, cells were seeded in 96-well cell culture wet and air-dried coated plates at a density of 1×10^6 cells/mL and cultured with antibodies for 24 hr. […]

B1: B11: fully human IgG1 antibody specific for ICAM-1; VH and VL sequences of FIG. 10 (SEQ ID NOs. 6 and 8) (antibody, listed as Homo sapiens, V domains shown)
VH: EVQLLESGGGLVQPGGSLRLSCAASGFTFSNAWMSWVRQAPGKGLEWVAFIWYDGSNKYYADSVKGRFTISRDNSKNTLYLQMNSLRAEDTAVYYCARYSGWYFDYWGQGTLVTVSS
VL: QSVLTQPPSASGTPGQRVTISCTGSSSNIGAGYDVHWYQQLPGTAPKLLIYDNNNRPSGVPDRFSGSKSGTSASLAISGLRSEDEADYYCQSYDSSLSAWLFGGGTKLTVLG
ADCP (RPMI-8226 cells): conferred ADCP | ADCP [1]: conferred ADCP | PBMC cytokine release (PBMC): did not, however, induce PBMC cytokine release
